# Target: N237_S47D with C-terminal human Fc tag
# Assay: BLI
substance,measurement,value
Nipah virus attachment glycoprotein G receptor-binding domain (from UniProt Q9IH62 176-602) (domain or fragment),Kd,3.8 nM

# Reference: article doi:10.64898/2025.12.20.695652 (bioRxiv, 2025)
